Test results taken from the supplement of paper PMC10567573.
± gives the standard deviation.

Assay: protein stability index of a GFP-peptide fusion (GPS, HEK-293T) (PSI 1-6); higher = more stable
[1] = treatment: DMSO, c terminus: a fixed tail appended
[2] = treatment: MLN4924 1 uM, 8 h, c terminus: a fixed tail appended
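Note: 24-mer peptide tiles fused after GFP, lentivirally expressed, FACS-sorted into six equal bins by GFP/DsRed ratio, decoded by Illumina sequencing, PSI is the read-weighted mean bin number.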

Row | Sequence | protein stability index [1] | protein stability index [2] | protein stability index (treatment: DMSO, c terminus: native) | protein stability index (treatment: MLN4924 1 uM, 8 h, c terminus: native)
1 | NQLLVADVKRLGKQNARFLTSMRR [STX11] | 2.97 ± 0.079 | 3.08 ± 0.41 |  | 
2 | LDDSTVARELAITDSEHSDAEVSC [RETREG3] | 5.52 ± 0.23 | 5.47 ± 0.24 |  | 
3 | SLEPFRPQQAPQDDGSQDPEVLDR [PWWP2B] | 5.51 ± 0.16 | 5.53 ± 0.14 |  | 
4 | AGEGRLGHKRKQPLPKRVAKVPRP [FOXJ1] | 4.53 ± 0.45 | 4.36 ± 0.43 |  | 
5 | LLCLRAVTHREGAPPLPGAESFPG [PLEKHN1] | 3.08 ± 0.23 | 3.11 ± 0.067 |  | 
6 | LDITNPKAVLENALRNFACLTTGD [UFD1] | 2.65 ± 0.21 | 2.46 ± 0.19 |  | 
7 | GKAATMEIPIHGNGEARQLPEDDG [ARFIP2] | 5.58 ± 0.15 | 5.34 ± 0.21 |  | 
8 | PRYITDVIDAEPFIRCSLQCRDLV [KLHL12] | 2.25 ± 0.57 | 2.26 ± 0.66 |  | 
9 | VSGSHFVGVDGVRAFLQTYSHEVS [PCDHGA10] | 2.49 ± 0.27 | 2.24 ± 0.24 |  | 
10 | SLTRSNRHRLRWHSFQSSHRPSLN [DLC1] | 3.05 ± 0.14 | 3.41 ± 0.31 |  | 
11 | EKEKAEIEAKEACDWLRATGFPQY [DLC1] | 4.02 ± 0.24 | 4.09 ± 0.24 |  | 
12 | SVMAIERCIGVTKPIFHSTKITSK [PTGFR] | 2.71 ± 0.16 | 2.98 ± 0.49 |  | 
13 | SALEGRADTTTGSAAGPPLSEDDK [EHMT1] | 5.14 ± 0.83 | 5.38 ± 0.43 |  | 
14 | RGTYEQDGRFEKRQGNPSWKKQQK [ZNF396] | 4.63 ± 0.34 | 4.72 ± 0.41 |  | 
15 | SNAMLVGDKLKFLSMLLTLKCEMN [ACSBG2] | 2.66 ± 0.62 | 2.52 ± 0.052 |  | 
16 | GPDGQEMDPPNPEEVKTPEEEMRS [GAGE1] | 5.7 ± 0.3 | 5.38 ± 0.42 |  | 
17 | MDADMDYERPNVETIKCVVVGDNA [RHOBTB1] | 4.8 ± 0.1 | 4.83 ± 0.14 |  | 
18 | MRATPLAAPAGSLSRKKRLELDDN [TRIB3] | 4.57 ± 0.14 | 4.86 ± 0.23 |  | 
19 | ENLDEAREQKEKSPPDQPAVPHPP [ADD1] | 5.61 ± 0.15 | 5.66 ± 0.28 |  | 
20 | QNPRQVAQSEAEKKLKKDDKKKEL [ZC3H15] | 5.52 ± 0.22 | 5.58 ± 0.19 |  | 
21 | LFSKWFSESGKLVTKMFQKIQDLI [TRIP13] | 2.98 ± 0.52 | 2.49 ± 0.39 |  | 
22 | FGAVTNVKVIRDFTTNKCKGFGFV [ELAVL3] | 2.42 ± 0.21 | 2.19 ± 0.38 |  | 
23 | SDKIGSTIDDTISKFRRKDREDSP [CLINT1] | 5.1 ± 0.4 | 5.21 ± 0.3 |  | 

Row | Sequence | protein stability index [1] | protein stability index [2] | protein stability index (treatment: DMSO, c terminus: native) | protein stability index (treatment: MLN4924 1 uM, 8 h, c terminus: native)
24 | EAQEEFLRVLGSMCQRLRSMQYNG [DFFB] | 2.27 ± 0.21 | 2.27 ± 0.21 |  | 
25 | QHNLCRKCASDIFQASNPYLPTRG [TRIM55] | 2.29 ± 0.26 | 2.45 ± 0.22 |  | 
26 | SGLEKEVQRLTSRAARDYKIQNHG [FCHSD1] | 3.89 ± 0.16 | 3.61 ± 0.38 |  | 
27 | DVKARLEGEIATYRHLLEGEDCKL [KRT36] | 4.22 ± 0.21 | 4.29 ± 0.075 |  | 
28 | AWVANFERPRMNANSLLASPTGLS [CRY1] | 2.64 ± 0.5 | 2.97 ± 0.37 |  | 
29 | TRGDADMYDLPKKEDALLYQSKGY [EMD] | 4.19 ± 0.14 | 4.38 ± 0.15 |  | 
30 | ALARDLLSETADPFFVLNSDVICD [GMPPB] | 3.07 ± 0.069 | 3.32 ± 0.26 |  | 
31 | EKAFIAHFQDNLHSVNRDLNELER [MED27] | 3.85 ± 0.23 | 4.09 ± 0.2 |  | 
32 | ARSESVLLHMPQPVNPELTAGPIT [TRIM43] | 4.31 ± 0.061 | 4.41 ± 0.078 |  | 
33 | PVLRPMDLMVEATPRRVFANAHTY [PPP2R2B] | 2.68 ± 0.17 | 2.82 ± 0.075 |  | 
34 | GGMALGVAGLAGLIGLAVSKSKS [FIS1] |  |  | 2.35 ± 0.34 | 1.78 ± 0.27
35 | FASGFKRAFKIKDFANTIPGHGGI [CDS1] | 2.65 ± 0.43 | 2.47 ± 0.66 |  | 
36 | IADYLLLPLAEREHVSRALCIHTG [TRIB1] | 2.23 ± 0.47 | 2.02 ± 0.33 |  | 
37 | ITVKNLRMAIGYLHSHRHLYPEGI [POMT2] | 3.02 ± 0.38 | 2.88 ± 0.58 |  | 
38 | EGNLAETENRYCVQLSQIQGLIGS [KRT17] | 3.63 ± 0.15 | 3.94 ± 0.12 |  | 
39 | ELDRWLYHLEKQTALLGGPRRCHS [PLEKHN1] | 2.24 ± 0.19 | 2.17 ± 0.39 |  | 
40 | LDVGATEGQDLQHISNQKMPTGPP [DRICH1] | 5.18 ± 0.094 | 5.21 ± 0.091 |  | 
41 | TAIKSIEFARKGSCFLINTADRII [RBBP5] | 2.6 ± 0.22 | 2.75 ± 0.78 |  | 
42 | SLFSYGLRESIASYLSLTSEDNTS [SLA] | 2.49 ± 0.19 | 2.61 ± 0.22 |  | 
43 | DGSDFQHRERVAMHYQMSVTLKYE [JAGN1] | 2.62 ± 0.26 | 2.87 ± 0.24 |  | 
44 | LCATDFKFAMYPPSMIATGSVGAA [CCND2] | 2.38 ± 0.23 | 2.38 ± 0.29 |  | 
45 | NSDLNNLLFCCQCVDVVFYNPDLK [RHOBTB3] | 2.28 ± 0.99 | 2.59 ± 0.6 |  | 
